According to patent US20110293620A1:

Legend:
[1] = molecular target: recombinant PR1/HLA-A*0201 monomer (human); assay: SPR, Biacore; antibody captured on anti-mouse antibody surface, peptide/HLA-A2 as analyte
[2] = molecular target: recombinant PR1/HLA-A*0201 monomer (human); assay: SPR (BIAcore 3000), BB7.2 captured on an anti-mouse antibody surface, PR1/HLA-A2 monomer (HLA-A2/beta2m/peptide) as analyte in a concentration series, 25 C, first-order kinetic fit; the box below the panel and the text round it to 162 nM

“BB7.2 murine monoclonal antibody (HLA-A*0201 allele-specific mouse IgG2a)” gave a Kd [1] of 162 nM and a Kd [2] of 162 nM.
